EP1417974A1

B1: BIWA 4 (antibody, human IgG1, kappa, V domains shown)
VH: EVQLVESGGGLVKPGGSLRLSCAASGFTFSSYDMSWVRQAPGKGLEWVSTISSGGSYTYYLDSIKGRFTISRDNAKNSLYLQMNSLRAEDTAVYYCARQGLDYWGRGTLVTVSS
VL: EIVLTQSPATLSLSPGERATLSCSASSSINYIYWYQQKPGQAPRLLIYLTSNLASGVPARFSGSGSGTDFTLTISSLEPEDFAVYYCLQWSSNPLTFGGGTKVEIKR

Molecular target: CD44v6 on antigen-positive FaDu cells (human) (UniProt P16070)
Assay: flow cytometry (FACS) on antigen-positive FaDu cells, FITC-labeled anti-human IgG detection, on ice

UniProt P16070, sequence (P16070 21-742): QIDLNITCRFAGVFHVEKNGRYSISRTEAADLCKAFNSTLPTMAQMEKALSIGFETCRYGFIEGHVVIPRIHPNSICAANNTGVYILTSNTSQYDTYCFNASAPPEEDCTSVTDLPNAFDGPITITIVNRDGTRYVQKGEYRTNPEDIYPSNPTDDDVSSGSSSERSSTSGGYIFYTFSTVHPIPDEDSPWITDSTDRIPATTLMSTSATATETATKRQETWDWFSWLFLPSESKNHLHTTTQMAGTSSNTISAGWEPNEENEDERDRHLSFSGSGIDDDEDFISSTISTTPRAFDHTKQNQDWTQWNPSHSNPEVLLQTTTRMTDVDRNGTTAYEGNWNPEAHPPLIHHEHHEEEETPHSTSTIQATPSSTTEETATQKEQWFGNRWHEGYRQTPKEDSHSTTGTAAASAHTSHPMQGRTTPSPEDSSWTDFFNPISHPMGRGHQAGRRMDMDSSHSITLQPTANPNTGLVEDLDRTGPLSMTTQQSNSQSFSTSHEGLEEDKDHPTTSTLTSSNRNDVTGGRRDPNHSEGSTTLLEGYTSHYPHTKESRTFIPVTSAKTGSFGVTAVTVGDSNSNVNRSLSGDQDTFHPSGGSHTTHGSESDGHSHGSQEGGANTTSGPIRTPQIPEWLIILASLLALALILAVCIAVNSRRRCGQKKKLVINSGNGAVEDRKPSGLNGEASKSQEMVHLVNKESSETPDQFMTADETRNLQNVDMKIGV

| Molecule | Kd [nM] |
| --- | --- |
| BIWI 1 (from UniProt P0DOX5 2-449) | 1.8 |
| B1 | 1 |
